We go through one molecule from patent publication US20240287161A1 (NATIONAL UNIVERSITY CORPORATION TOTTORI UNIVERSITY, published 2024).

Test [1] addresses T1, HCoV-229E trimeric S protein (amino acids 12-1109) with T4 foldon, histidine tag and strep-tag (HCoV-229E, UniProt P15423 12-1112).
T1 chain: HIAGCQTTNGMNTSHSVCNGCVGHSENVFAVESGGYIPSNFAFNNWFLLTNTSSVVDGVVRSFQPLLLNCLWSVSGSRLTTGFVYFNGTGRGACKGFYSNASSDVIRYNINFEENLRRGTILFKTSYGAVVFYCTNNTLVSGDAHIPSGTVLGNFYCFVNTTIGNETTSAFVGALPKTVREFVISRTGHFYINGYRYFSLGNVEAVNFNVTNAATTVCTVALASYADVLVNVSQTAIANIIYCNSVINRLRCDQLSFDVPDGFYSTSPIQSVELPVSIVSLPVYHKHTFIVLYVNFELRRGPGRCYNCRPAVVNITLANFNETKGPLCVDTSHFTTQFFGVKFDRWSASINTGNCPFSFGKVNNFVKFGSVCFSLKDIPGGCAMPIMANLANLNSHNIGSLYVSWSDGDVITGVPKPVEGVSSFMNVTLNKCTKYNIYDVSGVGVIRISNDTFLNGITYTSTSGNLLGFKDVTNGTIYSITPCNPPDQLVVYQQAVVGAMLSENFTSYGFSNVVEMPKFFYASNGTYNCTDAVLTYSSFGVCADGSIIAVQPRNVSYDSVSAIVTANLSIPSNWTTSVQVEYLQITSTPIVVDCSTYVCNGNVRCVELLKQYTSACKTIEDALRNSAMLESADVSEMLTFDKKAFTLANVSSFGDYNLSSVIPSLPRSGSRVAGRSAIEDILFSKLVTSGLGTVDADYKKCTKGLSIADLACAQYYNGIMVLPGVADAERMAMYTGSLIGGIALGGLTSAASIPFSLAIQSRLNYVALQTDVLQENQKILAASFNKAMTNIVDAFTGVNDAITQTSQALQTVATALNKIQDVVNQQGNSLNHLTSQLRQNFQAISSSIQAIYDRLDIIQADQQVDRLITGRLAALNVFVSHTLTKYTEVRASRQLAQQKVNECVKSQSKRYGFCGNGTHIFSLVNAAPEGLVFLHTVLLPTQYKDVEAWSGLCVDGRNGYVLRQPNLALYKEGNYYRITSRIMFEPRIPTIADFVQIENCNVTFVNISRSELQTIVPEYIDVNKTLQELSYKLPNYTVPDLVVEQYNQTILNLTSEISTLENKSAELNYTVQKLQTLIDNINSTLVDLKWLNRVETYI
The test can be described thus: ELISA on coated S-trimeric antigen, anti-human IgG-HRP [Human IgG1, NT-193].

Test [2] deals with T2, HCoV-HKU1 trimeric S protein (amino acids 13-1293) with T4 foldon, histidine tag and strep-tag (HCoV-HKU1, UniProt Q5MQD0 13-1297).
T2 sequence: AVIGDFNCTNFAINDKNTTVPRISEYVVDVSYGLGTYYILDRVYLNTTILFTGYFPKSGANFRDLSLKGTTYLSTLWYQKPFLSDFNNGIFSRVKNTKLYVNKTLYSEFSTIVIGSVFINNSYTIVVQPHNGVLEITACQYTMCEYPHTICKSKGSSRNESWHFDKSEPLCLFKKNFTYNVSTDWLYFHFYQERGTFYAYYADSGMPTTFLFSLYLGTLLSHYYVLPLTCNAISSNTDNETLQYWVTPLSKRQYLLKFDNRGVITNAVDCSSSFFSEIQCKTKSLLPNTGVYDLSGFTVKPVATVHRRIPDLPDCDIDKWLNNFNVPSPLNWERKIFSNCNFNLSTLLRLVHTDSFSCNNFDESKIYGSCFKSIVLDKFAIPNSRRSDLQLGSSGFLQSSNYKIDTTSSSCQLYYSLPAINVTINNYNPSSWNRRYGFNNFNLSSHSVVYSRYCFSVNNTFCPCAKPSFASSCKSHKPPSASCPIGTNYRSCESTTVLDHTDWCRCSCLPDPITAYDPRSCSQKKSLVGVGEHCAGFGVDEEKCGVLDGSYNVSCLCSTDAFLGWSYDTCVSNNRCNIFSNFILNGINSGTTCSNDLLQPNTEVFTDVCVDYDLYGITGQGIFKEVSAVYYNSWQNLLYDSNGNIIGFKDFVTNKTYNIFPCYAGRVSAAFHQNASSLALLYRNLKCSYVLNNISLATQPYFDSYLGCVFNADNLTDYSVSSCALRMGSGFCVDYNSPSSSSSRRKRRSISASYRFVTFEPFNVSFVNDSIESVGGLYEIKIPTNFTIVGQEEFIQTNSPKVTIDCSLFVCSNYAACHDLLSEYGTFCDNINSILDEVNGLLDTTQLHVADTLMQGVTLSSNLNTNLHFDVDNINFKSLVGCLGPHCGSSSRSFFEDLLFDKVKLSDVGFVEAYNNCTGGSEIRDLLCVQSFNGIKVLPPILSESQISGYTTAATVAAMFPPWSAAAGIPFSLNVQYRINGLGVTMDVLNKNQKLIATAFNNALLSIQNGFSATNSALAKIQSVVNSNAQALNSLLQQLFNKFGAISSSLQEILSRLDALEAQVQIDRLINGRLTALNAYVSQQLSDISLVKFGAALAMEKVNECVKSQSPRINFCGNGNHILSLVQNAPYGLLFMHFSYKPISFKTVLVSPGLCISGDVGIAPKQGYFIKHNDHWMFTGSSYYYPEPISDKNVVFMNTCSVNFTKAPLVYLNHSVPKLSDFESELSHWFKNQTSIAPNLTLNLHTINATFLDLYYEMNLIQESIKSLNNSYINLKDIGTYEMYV
The description is as above.

B1: NT-193 (recombinant human IgG1/kappa antibody) (antibody, V domains shown)
VH: EVQLQQWGAGLLKPSETLSLTCAVYGGSFSGYYWSWIRQPPGKGLEWIGEINHSGSTNYNPSLKSRVTISVDTSKNQFSLKLSSVTAADTAVYYCARGWDLDYYYGMDVWGQGTTVTVSS
VL: DIRMTQSPSAMSASVGDRVTVTCRASQGIGNYLAWFQLKPGKVPKRLIYAASSLQSGVPARFSGGGSGTEFTLTISSLQPEDFATYYCLQHGFLPWTFGQGTKLEIK
In the case of B1, the binding result in test [1] and in test [2] was “no binding (tested: 1000 ng/ml)” each time.
